Values quoted from earlier work, collected in article PMC10330345.

Target: BTN3A1 272-513 (Homo sapiens) (UniProt O00481)
Test: ITC

Chain of BTN3A1 272-513 (Homo sapiens) (O00481 272-513): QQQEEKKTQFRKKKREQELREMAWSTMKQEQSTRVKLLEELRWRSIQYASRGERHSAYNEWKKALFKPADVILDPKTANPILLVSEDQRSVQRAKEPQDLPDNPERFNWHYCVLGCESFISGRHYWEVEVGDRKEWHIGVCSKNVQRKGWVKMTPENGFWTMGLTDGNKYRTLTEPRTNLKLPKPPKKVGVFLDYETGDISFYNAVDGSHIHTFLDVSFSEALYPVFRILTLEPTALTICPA

- Kd: 890 nM
Substance: BTN2A1 271-527 (from UniProt Q7KYR7)
